Target: human ErbB2 (HER2) expressed on cells (Renca-lacZ/ErbB2 murine renal cell carcinoma cells); MDA-MB453 human … (human, UniProt P04626 23-1255)
Assay: cell-based or functional assay

B1: chimeric antigen receptor (CAR) 5.28.z, on the surface of clonal NK-92/5.28.z cells (receptor)
chain: QVQLQQSGPELKKPGETVKISCKASGYPFTNYGMNWVKQAPGQGLKWMGWINTSTGESTFADDFKGRFDFSLETSANTAYLQINNLKSEDSATYFCARWEVYHGYVPYWGQGTTVTVSSGGGGSGGGGSGGGGSDIQLTQSHKFLSTSVGDRVSITCKASQDVYNAVAWYQQKPGQSPKLLIYSASSRYTGVPSRFTGSGSGPDFTFTISSVQAEDLAVYFCQQHFRTPFTFGSGTKLEIKALSNSIMYFSHFVPVFLPAKPTTTPAPRPPTPAPTIASQPLSLRPEACRPAAGGAVHTRGLDKPFWVLVVVGGVLACYSLLVTVAFIIFWVRSKRSRLLHSDYMNMTPRRPGPTRKHYQPYAPPRDFAAYRSRVKFSRSADAPAYQQGQNQLYNELNLGRREEYDVLDKRRGRDPEMGGKPRRKNPQEGLYNELQKDKMAEAYSEIGMKGERRRGKGHDGLYQGLSTATKDTYDALHMQALPPR
  specific lysis at an E/T ratio of 10:1 (NK-92/5.28.z irradiated with 10 Gy, MDA-MB453 target cells, 2 h co-incubation): 65 % specific lysis

— patent US20170129967A1 (CHEMOTHERAPEUTISCHES FORSCHUNGSINSTITUT GEORG SPEYER HAUS, published 2017)
